# Assay results from US20180208675A1 (Novo Nordisk, published 2018).
# B1: Fab 0094-Fab 0089 conjugate 9004 (bispecific antibody)
# heavy 1: EVQLVESGGGLVKPGGSLRLSCAASGFTFSNYAMSWVRQAPGKGLEWVSTISRSGSYSYYPDSVKGRFTISRDNAKNSLYLQMNSLRAEDTAVYYCARLGGYDEGDAMDSWGQGTTVTVSSASTKGPSVFPLAPCSRSTSESTAALGCLVKDYFPEPVTVSWNSGALTSGVHTFPAVLQSSGLYSLSSVVTVPSSSLGTKTYTCNVDHKPSNTKVDKRVESKYGPPC
# light 1: DIVMTQTPLSLSVTPGQPASISCKSSQSLLESDGKTYLNWYLQKPGQSPQLLIYLVSILDSGVPDRFSGSGSGTDFTLKISRVEAEDVGVYYCLQATHFPQTFGGGTKVEIKRTVAAPSVFIFPPSDEQLKSGTASVVCLLNNFYPREAKVQWKVDNALQSGNSQESVTEQDSKDSTYSLSSTLTLSKADYEKHKVYACEVTHQGLSSPVTKSFNRGEC
# heavy 2: QVQLQQSGAELVKPGASVKLSCKASGYTFISYYMYWVKQRPGQGLEWIGEINPSNGDTNLNEKFKSKATLTVDKSSSTVYMQLSSLTSEDSAVYYCTRWDRFDGFVYWGQGTLVTVSAASTKGPSVFPLAPCSRSTSESTAALGCLVKDYFPEPVTVSWNSGALTSGVHTFPAVLQSSGLYSLSSVVTVPSSSLGTKTYTCNVDHKPSNTKVDKRVESKYGPPC
# light 2: ETTVTQSPASLSMAIGGKVTIRCIISTNIDDDINWYQQKPGEPPKLLISEGNTLRPGVPSRFSSSGYGTDFVFTIENMLSEDVADYYCLQSDDLPYTFGGGTKLEIKRTVAAPSVFIFPPSDEQLKSGTASVVCLLNNFYPREAKVQWKVDNALQSGNSQESVTEQDSKDSTYSLSSTLTLSKADYEKHKVYACEVTHQGLSSPVTKSFNRGEC
# modifications: C-terminal cysteine coupled through the bis-maleimide linker to the Fab 0094 heavy chain; C-terminal cysteine coupled through 1,16-N,N'-bis(maleimido)-4,13-diaza-7,10-dioxa-3,14-dioxohexadecane to the C-terminal cysteine of the Fab 0089 heavy chain
# notes: KPI-2/KPI-3
# B2: Fab 0095-Fab 0089 conjugate 9005 (bispecific antibody)
# heavy 1: EVQLVESGGGLVKPGGSLRLSCAASGFTFSNYAMSWVRQAPGKGLEWVSTISRSGSYSYYADSVKGRFTISRDNAKNSLYLQMNSLRAEDTAVYYCARLGGYDEGDAMDSWGQGTTVTVSSASTKGPSVFPLAPCSRSTSESTAALGCLVKDYFPEPVTVSWNSGALTSGVHTFPAVLQSSGLYSLSSVVTVPSSSLGTKTYTCNVDHKPSNTKVDKRVESKYGPPC
# light 1: DIVMTQTPLSLSVTPGQPASISCKSSQSLLESDGKTYLNWLLQRPGESPKLLIYLVSILDSGVPDRFSGSGSGTDFTLKISRVEAEDVGVYYCLQATHFPQTFGGGTKVEIKRTVAAPSVFIFPPSDEQLKSGTASVVCLLNNFYPREAKVQWKVDNALQSGNSQESVTEQDSKDSTYSLSSTLTLSKADYEKHKVYACEVTHQGLSSPVTKSFNRGEC
# heavy 2: QVQLQQSGAELVKPGASVKLSCKASGYTFISYYMYWVKQRPGQGLEWIGEINPSNGDTNLNEKFKSKATLTVDKSSSTVYMQLSSLTSEDSAVYYCTRWDRFDGFVYWGQGTLVTVSAASTKGPSVFPLAPCSRSTSESTAALGCLVKDYFPEPVTVSWNSGALTSGVHTFPAVLQSSGLYSLSSVVTVPSSSLGTKTYTCNVDHKPSNTKVDKRVESKYGPPC
# light 2: ETTVTQSPASLSMAIGGKVTIRCIISTNIDDDINWYQQKPGEPPKLLISEGNTLRPGVPSRFSSSGYGTDFVFTIENMLSEDVADYYCLQSDDLPYTFGGGTKLEIKRTVAAPSVFIFPPSDEQLKSGTASVVCLLNNFYPREAKVQWKVDNALQSGNSQESVTEQDSKDSTYSLSSTLTLSKADYEKHKVYACEVTHQGLSSPVTKSFNRGEC
# modifications: C-terminal cysteine coupled through the bis-maleimide linker to the Fab 0095 heavy chain; C-terminal cysteine coupled through 1,16-N,N'-bis(maleimido)-4,13-diaza-7,10-dioxa-3,14-dioxohexadecane to the C-terminal cysteine of the Fab 0089 heavy chain
# notes: KPI-2/KPI-3; also called Fab 0095-Fab 0089 (9005)
# B3: Fab 0313-Fab 0089 conjugate 9031 (bispecific antibody)
# heavy 1: EVQLVESGGGLVKPGGSLRLSCAASGFTFSNYAMSWVRQAPGKGLEWVSTISRSGSYSYYADSVKGRFTISRDNAKNSLYLQMNSLRAEDTAVYYCARLGGYDEGDAMDSWGQGTTVTVSSASTKGPSVFPLAPCSRSTSESTAALGCLVKDYFPEPVTVSWNSGALTSGVHTFPAVLQSSGLYSLSSVVTVPSSSLGTKTYTCNVDHKPSNTKVDKRVESKYGPPC
# light 1: DIVMTQTPLSLSVTPGQPASISCKSSQSLLESDGKTYLNWYLQKPGQSPQLLIYLVSILDSGVPDRFSGSGSGTDFTLKISRVEAEDVGVYYCLQATHFPQTFGGGTKVEIKRTVAAPSVFIFPPSDEQLKSGTASVVCLLNNFYPREAKVQWKVDNALQSGNSQESVTEQDSKDSTYSLSSTLTLSKADYEKHKVYACEVTHQGLSSPVTKSFNRGEC
# heavy 2: QVQLQQSGAELVKPGASVKLSCKASGYTFISYYMYWVKQRPGQGLEWIGEINPSNGDTNLNEKFKSKATLTVDKSSSTVYMQLSSLTSEDSAVYYCTRWDRFDGFVYWGQGTLVTVSAASTKGPSVFPLAPCSRSTSESTAALGCLVKDYFPEPVTVSWNSGALTSGVHTFPAVLQSSGLYSLSSVVTVPSSSLGTKTYTCNVDHKPSNTKVDKRVESKYGPPC
# light 2: ETTVTQSPASLSMAIGGKVTIRCIISTNIDDDINWYQQKPGEPPKLLISEGNTLRPGVPSRFSSSGYGTDFVFTIENMLSEDVADYYCLQSDDLPYTFGGGTKLEIKRTVAAPSVFIFPPSDEQLKSGTASVVCLLNNFYPREAKVQWKVDNALQSGNSQESVTEQDSKDSTYSLSSTLTLSKADYEKHKVYACEVTHQGLSSPVTKSFNRGEC
# modifications: C-terminal cysteine coupled through the bis(acetyl)ethylene diamine linker to the Fab 0313 heavy chain; C-terminal cysteine coupled through bis(bromoacetyl)ethylene diamine to the C-terminal cysteine of the Fab 0089 heavy chain
# notes: KPI-2/KPI-3; also called Fab 0313-FAb 0089 (9031)
# B4: Fab 0088-Fab 0089 conjugate 9002 (bispecific antibody)
# heavy 1: EVQLVESGGGLVKPGGSLRLSCAASGFTFSNYAMSWVRQTPEKRLEWVATISRSGSYSYFPDSVQGRFTISRDNAKNSLYLQMNSLRAEDTAVYYCARLGGYDEGDAMDSWGQGTTVTVSSASTKGPSVFPLAPCSRSTSESTAALGCLVKDYFPEPVTVSWNSGALTSGVHTFPAVLQSSGLYSLSSVVTVPSSSLGTKTYTCNVDHKPSNTKVDKRVESKYGPPC
# light 1: DIVMTQTPLSLSVTPGQPASISCKSSQSLLESDGKTYLNWYLQKPGQSPQLLIYLVSILDSGVPDRFSGSGSGTDFTLKISRVEAEDVGVYYCLQATHFPQTFGGGTKVEIKRTVAAPSVFIFPPSDEQLKSGTASVVCLLNNFYPREAKVQWKVDNALQSGNSQESVTEQDSKDSTYSLSSTLTLSKADYEKHKVYACEVTHQGLSSPVTKSFNRGEC
# heavy 2: QVQLQQSGAELVKPGASVKLSCKASGYTFISYYMYWVKQRPGQGLEWIGEINPSNGDTNLNEKFKSKATLTVDKSSSTVYMQLSSLTSEDSAVYYCTRWDRFDGFVYWGQGTLVTVSAASTKGPSVFPLAPCSRSTSESTAALGCLVKDYFPEPVTVSWNSGALTSGVHTFPAVLQSSGLYSLSSVVTVPSSSLGTKTYTCNVDHKPSNTKVDKRVESKYGPPC
# light 2: ETTVTQSPASLSMAIGGKVTIRCIISTNIDDDINWYQQKPGEPPKLLISEGNTLRPGVPSRFSSSGYGTDFVFTIENMLSEDVADYYCLQSDDLPYTFGGGTKLEIKRTVAAPSVFIFPPSDEQLKSGTASVVCLLNNFYPREAKVQWKVDNALQSGNSQESVTEQDSKDSTYSLSSTLTLSKADYEKHKVYACEVTHQGLSSPVTKSFNRGEC
# modifications: C-terminal cysteine coupled through the bis-maleimide linker to the Fab 0088 heavy chain; C-terminal cysteine coupled through 1,16-N,N'-bis(maleimido)-4,13-diaza-7,10-dioxa-3,14-dioxohexadecane to the C-terminal cysteine of the Fab 0089 heavy chain
# notes: KPI-2/KPI-3
# B5: Fab 2F22 (Fab, V domains shown)
# VH: QVQLKQSGPGLVQPSQSLSITCTVSGFSLTNYGVHWVRQSPGKGLEWLAVIWRGGSIDYNAAFMSRLSITKDNSKSQVFFKMNSLQADDTAIYYCAKNSHGNYVGYAMDYWGQGTSVTVSS
# VL: GIVMTQSQKFMSTTVGDRVSITCKASQSVGPAVAWYQQKPGQSPKLLIYSASNRYTGVPDRFTGSGSGADFTLTISNLHSEDLADYFCQQYTSYPTFGGGTKLEIKR
# notes: KPI-1 specific; HC truncated after the hinge cysteine; also called Fab fragment 2F22; extended Fab 2F22 (Fab for chemical coupling)
# Biological target: T1, human TFPI alpha (full-length TFPIα) (human, UniProt P10646 29-304)
# T1 construct: Analyte in SPR and added to plasma (2 or 20 nM) in thrombin generation assays; also called human TFPIα
# Assay: SPR (Biacore T200), Fab-Fab conjugate captured on Human Fab Binder, TFPIα in solution, 1:1 fit
# From the text: (§1) Binding interaction analysis was obtained by Surface Plasmon Resonance in a Biacore T200 instrument. Human Fab Binder (Human Fab Capture Kit, GE Healthcare) was immobilized to a series S CM4 sensor chip (GE Healthcare) in flow-cells 1-4 at 10000 response units (RU) using the amine coupling protocol available within the Biacore T-200 control software (GE Healthcare) and the reagents provided with the Amine Coupling Kit (GE Healthcare).The relevant Fab fragment or Fab-Fab conjugate was captured in flow-cell 2, 3 or 4 at a fixed concentration. Different concentrations of TFPI were tested by diluting TFPI in the running buffer (10 mM Hepes, pH 7.4, 300 mM NaCl, 5 mM CaCl₂, 0.05% Surfactant P20, 1 mg/ml BSA). Each sample was assayed using 300 seconds of contact time followed by 600 seconds of dissociation time at 50 μl/min flow rate. A buffer blank was also assayed. The sensor surface was regenerated with 10 mM Glycine pH 2.1 with two cycles each of 30 seconds at 50 μl/min flow rate.
# (§2) Biacore T200 Evaluation software was used to analyse the data. Determination of binding constants (kₒₙ, koff, KD) was obtained assuming a 1:1 interaction of TFPI and the Fab variant or Fab-Fab conjugate of interest.
Binder,Kd [nM],koff [s⁻¹],kon [M⁻¹ s⁻¹]
B1,0.036,0.00022,6.2e+06
B2,0.038,0.00023,6.1e+06
B3,0.17,0.0067,4e+07
B4,0.0053,3.8e-05,7.1e+06

# Biological target: T1, human TFPI alpha (full-length TFPIα)
# Assay: SPR (Biacore T200), Fab captured on Human Fab Binder, TFPIα in solution, 1:1 fit
# From the text: as §1, §2
row,Binder,Kd [nM]
1,B5,1.7
